This experiment addresses NB88. In words: SPR. In general terms: Surface plasmon resonance follows binding to a sensor surface in real time, without labels.

B1: CaSR ECD (extracellular domain of human calcium-sensing receptor) (domain or fragment)
chain: YGPDQRAQKKGDIILGGLFPIHFGVAAKDQDLKSRPESVECIRYNFRGFRWLQAMIFAIEEINSSPALLPNLTLGYRIFDTCNTVSKALEATLSFVAQNKIDSLNLDEFCNCSEHIPSTIAVVGATGSGVSTAVANLLGLFYIPQVSYASSSRLLSNKNQFKSFLRTIPNDEHQATAMADIIEYFRWNWVGTIAADDDYGRPGIEKFREEAEERDICIDFSELISQYSDEEEIQHVVEVIQNSTAKVIVVFSSGPDLEPLIKEIVRRNITGKIWLASEAWASSSLIAMPQYFHVVGGTIGFALKAGQIPGFREFLKKVHPRKSVHNGFAKEFWEETFNCHLQEGAKGPLPVDTFLRGHEESGDRFSNSSTAFRPLCTGDENISSVETPYIDYTHLRISYNVYLAVYSIAHALQDIYTCLPGRGLFTNGSCADIKKVEAWQVLKHLRHLNFTNNMGEQVTFDECGDLVGNYSIINWHLSPEDGSIVFKEVGYYNVYAKKGERLFINEEKILWSGFSREVPFSNCSRDCLAGTRKGIIEGEPTCCFECVECPDGEYSDETDASACNKCPDDFWSNENHTSCIAKEIEFLS
Broadly, the Kd is the equilibrium constant for the complex coming apart. Read a high Kd as weaker binding. Regarding B1, binding was characterised by a dissociation constant (Kd) of 3.9 nM.

These data come from article PMC8476121 (2021).
